Target: ANTXR2 expressed in RAW264.7 cells, Q6DFX2
Assay: cell-based or functional assay

Sequence of ANTXR2 expressed in RAW264.7 cells, Q6DFX2 (Q6DFX2 32-487 limits assumed): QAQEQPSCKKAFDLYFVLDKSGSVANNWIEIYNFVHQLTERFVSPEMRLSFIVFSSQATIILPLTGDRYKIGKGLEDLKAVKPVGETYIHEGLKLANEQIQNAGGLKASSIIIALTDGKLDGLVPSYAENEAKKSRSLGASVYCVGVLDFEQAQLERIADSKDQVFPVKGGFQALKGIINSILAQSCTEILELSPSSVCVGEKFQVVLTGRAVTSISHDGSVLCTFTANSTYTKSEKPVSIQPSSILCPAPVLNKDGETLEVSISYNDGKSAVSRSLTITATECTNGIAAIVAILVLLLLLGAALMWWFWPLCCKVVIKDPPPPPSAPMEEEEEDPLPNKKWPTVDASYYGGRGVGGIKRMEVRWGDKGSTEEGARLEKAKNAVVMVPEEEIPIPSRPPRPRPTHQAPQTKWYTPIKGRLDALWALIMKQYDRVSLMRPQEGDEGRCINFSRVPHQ

B1: … (SEQ ID NO: 3)-functionalized liposomes (peptide)
peptide: AWPLSQLDHSYNC
modifications: not checked
Activity against toxin-induced cell death in RAW264.7 cells (IC50): 40 nM | enhancement in the activity of the peptide by polyvalency (against the monovalent peptide): > 50000 fold
